Experiments:
[1] = target: HRG binding sites on human mammary carcinoma cell lines MDA-MB-453, T47D and BT474; assay: self-competition, 100 nM unlabeled HRG against 125I-HRG on T47D cells
[2] = target: HRG binding sites on human mammary carcinoma cell lines MDA-MB-453, T47D and BT474; assay: self-competition, 100 nM unlabeled HRG against 125I-HRG on BT474 cells
[3] = target: HRG binding sites on human mammary carcinoma cell lines MDA-MB-453, T47D and BT474; assay: self-competition, 100 nM unlabeled HRG against 125I-HRG on MDA-MB-453 cells
[4] = target: HER-2 on human mammary carcinoma cell lines MDA-MB-453, T47D and BT474 (human) (UniProt P04626); assay: 125I-HRG binding to T47D cells, 100 nM Mab

Row | percent of 125I-HRG binding blocked [1] [%] | percent of 125I-HRG binding blocked [2] [%] | percent of 125I-HRG binding blocked [3] [%] | percent of 125I-HRG binding blocked [4] [%] | Substance
1 | 98 | 96 | 99 |  | HRGβ1(177-244), EGF-like domain of heregulin β1 (from UniProt Q02297 177-244) (ligand)
2 |  |  |  | 48 | anti-HER-2 control Mab 4D5 (antibody)

Source: patent US20020119148A1
